B1: Spectrin alpha chain, erythrocytic 1, residues 979 to 1036; numbered along this chain, P02549 (parent)
chain: EQRVMALYDFQARSPREVTMKKGDVLTLLSSINKDWWKVEAADHQGIVPAVYVRRLAH

Variants of: B1
Test: abundance fitness (aPCA) (normalised: wild type 0, dead -1); higher = more abundant; growth selection in yeast, the domain comes from the species named
Conditions: Homo sapiens

Abundance fitness of substitutions, site by site:
M20: K -0.574; G -0.829; P -0.831; Y -0.867; W -0.622; A -0.791; V -0.22; F -0.681; N -0.209; T -0.877; L -0.276; I -0.554; E -0.726; C -0.726; R -0.963; Q -0.236
T19: L -0.369; A -0.371; Q -0.476; S 0.249; W -0.932; N -0.122; R -0.744; V -0.822; P -0.613; E -0.73
D24: S -0.256; R -0.689; T 0.006; V -0.421; Y -0.805; Q 0.579; G -0.883; L -0.986; M -0.527
L26: K -0.324; I -0.691; E -0.5; Y -0.173; G -0.65; V -0.767; A -0.493; C -0.046; Q -0.429; M -0.34; R -0.819; F -0.237
K22: W -0.725; A -0.664; Q 0.303; H -0.341; R -0.238; C -0.586; E -0.819
K34: G -0.415; A -0.292
N33: S -0.35; A -0.751; L -0.694; Q -0.494; W -0.822; G -0.447; V -0.833; D 0.224; R -0.739; E -0.064; C -0.929
S30: T -0.632; E -0.066; C -0.337; Y -0.108; A -0.657; D -0.013; G -0.041; L -1.18; V -0.964; M -0.463; K -0.322
V18: C -0.266; W -1.03; M -0.33; P -0.71; L 0.138; G -0.587; E -0.784; K -0.418; Q -0.656; F -0.339; R -0.817; A -0.376
T27: A -0.975; C -0.627; S -0.808; L -0.752; V -0.396; Q -0.228; K 0.229; I -0.521; P -0.382; N -0.246
S31: N -0.224; L -0.38; D 0.673; Q 0.225; E 0.518; Y -0.252; I 0.495; R -0.282; G -0.34; F -0.47; V 0.437; K -0.179; W -0.814; M -0.04; C -0.157; A 0.092
L29: W -0.111; T -0.27; P 0.075; R -0.768; I -0.266; G -0.464; M -0.582; V 0.016; S -0.134; K 0.119; E -0.934
V25: A -0.163; H -0.432; E 0.059; I -0.099; C -0.146; M -0.425; L -1.01; S -0.887; K -0.226; R -0.469; T -0.7
E17: N -0.693; V -0.9; R -0.778; Q -0.239; S -0.92; W -0.8; L -0.802; Y -0.012; T -0.729
L28: W -0.536; S -0.726; K -0.676; R -0.938; I 0.024; C 0.354; G -0.756; T -0.47; A -0.762
K21: W -0.534; L -0.731; F -0.643; G -0.652; I -0.779; H -0.304; A -0.561; V -0.781; P -0.578; R -0.105
I32: W 1.06
